This is an account of results in patent publication US20220031820.

The subject of the data set is T1, recombinant syndecan-1.
T1 sequence (P18827 whole entry, species assumed, looked up): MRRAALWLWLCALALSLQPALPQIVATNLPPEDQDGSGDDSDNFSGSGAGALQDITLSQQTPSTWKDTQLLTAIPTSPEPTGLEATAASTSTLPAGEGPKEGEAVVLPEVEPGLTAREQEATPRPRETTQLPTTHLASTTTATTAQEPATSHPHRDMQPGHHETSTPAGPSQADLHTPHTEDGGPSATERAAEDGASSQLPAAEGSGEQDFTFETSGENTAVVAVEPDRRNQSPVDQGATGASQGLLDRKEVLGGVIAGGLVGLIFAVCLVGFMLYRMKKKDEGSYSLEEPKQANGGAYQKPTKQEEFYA

As to recombinant GzmB, the “in vitro syndecan-1 cleavage assay (coomassie gel); GzmB 500 nM, syndecan-1 0.7 ug” value is on record as “syndecan-1 was cleaved by all three granzymes”.
